Positions count from the first letter of the chain named. Blank lines part the entries; values can stand above or below the binder they belong to.
What was measured:
mature human GDF-15 = molecular target: T1, mature human GDF-15 (human, UniProt Q99988 197-308); assay: HTRF epitope competition; competitor DyLight 650 labelled Antibody A; Europium labelled human GDF-15
T1 construct: Homodimer; also called hGDF-15; recombinant hu-GDF15
T1 sequence: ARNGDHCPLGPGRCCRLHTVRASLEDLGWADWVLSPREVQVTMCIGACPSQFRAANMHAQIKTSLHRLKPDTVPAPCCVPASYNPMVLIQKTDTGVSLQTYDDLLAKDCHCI
From the text: Antibodies from the immunizations with human GDF-15, in the form of crude supernatants from the immunization or in the form of purified IgGs, were chosen on the basis that they bind and compete with an epitope recognized by a control anti-GDF-15 antibody “Antibody A”. A biochemical epitope competition format was applied using an HTRF epitope competition assay that measured the binding of DyLight 650 labelled Antibody A to Europium labelled human GDF-15 (Prospec). In the absence of Antibody A binding, there is no detectable FRET fluorescence. When Antibody A binds to GDF-15, the resulting physical proximity between the secondary reagent donor/acceptor pair results in FRET. Competition with an antibody that recognizes the same or similar epitope will result in a dose dependent reduction of the FRET signal. FRET was measured ratiometrically [665 nm (acceptor)/620 nm (donor)] on an Envision plate reader, and IC₅₀ values were determined by curve fitting the data to a four parameter logistic equation using PRISM 6® software (Graphpad).

[1] = molecular target: T2, biotinylated cynomolgus GDF-15 (cynomolgus, UniProt G7PWZ3 197-308, biotinylated, sites not stated); assay: HTRF binding assay, biotinylated antigen, titration of antibody
T2 construct: also called Cyno GDF-15
T2 sequence: T1 sequence with H6R, R21H, A54E, T63M, S64N, I112V
From the text: (§1) Supernatants generated from the immunizations with human GDF-15 and purified IgGs were screened to identify IgGs with specific binding to human, cynomolgus, or mouse GDF-15. The HTRF (Homogeneous Time Resolved Fluorescence) assay is based on detection of a measurable FRET signal upon binding of a titration of test antibody to biotinylated human H202D GDF-15 variant, cynomolgus GDF-15 and mouse GDF-15. Europium cryptate (EuK) labelled Streptavidin and anti-human IgG XL665 (Cis Bio) were used as secondary detection reagents serving as energy donor and acceptor respectively. In the absence of test antibody binding, there is no detectable FRET fluorescence. When test antibody binds to GDF-15, the resulting physical proximity between the secondary reagent donor/acceptor pair results in FRET. FRET was measured ratiometrically [665 nm (acceptor)/620 nm (donor)] on an Envision plate reader, and data plotted using PRISM 6® software (Graphpad).

[2] = molecular target: T3, biotinylated human H202D GDF-15 variant (human, UniProt Q99988 197-308, biotinylated, sites not stated); assay: as above
T3 construct: also called Human GDF-15 H202D
T3 chain: T1 sequence with H6D
From the text: as §1

mouse GDF-15 = molecular target: T4, mouse GDF-15 (mouse, UniProt Q9Z0J7 189-303); assay: as above
T4 construct: also called mGDF-15
T4 sequence: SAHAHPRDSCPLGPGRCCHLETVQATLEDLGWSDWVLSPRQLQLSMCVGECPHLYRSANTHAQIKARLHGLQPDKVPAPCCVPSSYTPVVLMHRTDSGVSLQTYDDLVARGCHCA
From the text: as §1

[3] = molecular target: T5, mature recombinant cynomolgus GDF-15 with an N-terminal Flag and His tag, biotinylated (cynomolgus, UniProt G7PWZ3 197-308, chemically biotinylated with EZ link Sulfo-NHS-LC-Biotin, sites not stated); assay: SPR Biacore 8K, 25 C, biotinylated GDF-15 on streptavidin C1 chip, Fab as analyte
T5 construct: not shown: N-terminal Flag and His tags
T5 sequence: T1 sequence with H6R, R21H, A54E, T63M, S64N, I112V
Method: (§2) The experiments were carried out using mature recombinant human GDF-15, human GDF-15 H202D variant, mouse GDF-15, and cynomolgus GDF-15 with an N-terminal Flag and His tag. All species were chemically biotinylated using EZ link Sulfo-NHS-LC-Biotin (Thermo).
(§3) Streptavidin was covalently immobilized to a C1 chip surface using standard amine coupling techniques at a concentration of 4 μg/ml in 10 mM Sodium acetate pH 4.5. Recombinant biotinylated GDF-15 species were titrated onto the streptavidin chip surface in HBS-EP+ buffer to enable Fab binding.
(§4) Multiple buffer-only injections were made under the same conditions to allow for double reference subtraction of the final sensorgram sets, which were analyzed using Biacore 8K Evaluation Software. The chip surface was fully regenerated with pulses of 50 mM NaOH.

[4] = molecular target: T6, mature recombinant human GDF-15 with an N-terminal Flag and His tag, biotinylated (human, UniProt Q99988 197-308, chemically biotinylated with EZ link Sulfo-NHS-LC-Biotin, sites not stated); assay: as above
T6 construct: not shown: N-terminal Flag and His tags
T6 sequence: T1 sequence
Method: as §2, §3, §4

[5] = molecular target: T7, mature recombinant mouse GDF-15 with Flag and His tags (mouse, UniProt Q9Z0J7 189-303); assay: as above
T7 construct: also called Flag tagged mouse GDF-15; not shown: FLAG and poly-His tags immediately C-terminal to the furin cleavage site (N-terminal on the mature protein)
T7 sequence: T4 sequence
Method: as §2, §3, §4

[6] = molecular target: T8, mature recombinant human GDF-15 H202D variant with an N-terminal Flag and His tag, biotinylated (human, UniProt Q99988 197-308, chemically biotinylated with EZ link Sulfo-NHS-LC-Biotin, sites not stated); assay: as above
T8 construct: also called Human H202D; not shown: N-terminal Flag and His tags
T8 chain: T1 sequence with H6D
Method: as §2, §3, §4

IC50 (mature human GDF-15): 0.758 nM | binding result [1]: binds | binding result [2]: binds | binding result (mouse GDF-15): binds
B1: AB1170010 (antibody, V domains shown)
VH: QVTLKESGPGILQPSQTLSLTCSFSGFSLSTYGMGVGWIRQPSGKGLEWLANIWWNDDKYYNSALKSRLTISKDTSNNQVFLKISSVDTADTATYYCAQEVYGWFAYWGQGTLVTVSS
VL: DIVMTQSQKFMSTSVGDRVSVTCKASQNVGTNVAWYQQKPGQSPKALIYSASYRYSGVPDRFTGSGSGTDFTLTISNVQSEDLAEYFCQQYNSYPLTFGGGTKLEIK

Kd [3]: 2.8 nM | koff [3]: 0.0078 s⁻¹ | kon [3]: 2.79e+06 M⁻¹ s⁻¹ | Kd [4]: 1.64 nM | koff [4]: 0.00489 s⁻¹ | kon [4]: 2.97e+06 M⁻¹ s⁻¹ | Kd [5]: 0.14 nM | koff [5]: 0.000244 s⁻¹ | kon [5]: 1.75e+06 M⁻¹ s⁻¹ | Kd [6]: 1.63 nM | koff [6]: 0.00478 s⁻¹ | kon [6]: 2.92e+06 M⁻¹ s⁻¹
B2: AB1520085 Fab (Fab, V domains shown)
VH: QVQLQQPGAELVMPGASVKMSCKASGYTFTDYWMHWVKQRPGQGLEWIGVIDTSESYTSYNQKFKGKATLTVDESSSTAYMQLSSLTSEDSAVYFCARGGTTVVLDYWGQGTTLTVSS
VL: B1 VL with N32A, Q38K, Y53T, S56T, N92S, Y94S, L96W, I106L
notes: Fab of the anti-mouse GDF-15 mouse IgG1, expressed as in Spooner et al. 2015

Kd [3]: 0.476 nM | koff [3]: 0.00279 s⁻¹ | kon [3]: 5.87e+06 M⁻¹ s⁻¹ | Kd [4]: 0.159 nM | koff [4]: 0.000663 s⁻¹ | kon [4]: 4.18e+06 M⁻¹ s⁻¹ | Kd [5]: 107 nM | koff [5]: 0.329 s⁻¹ | kon [5]: 3.07e+06 M⁻¹ s⁻¹ | Kd [6]: 0.156 nM | koff [6]: 0.000696 s⁻¹ | kon [6]: 4.45e+06 M⁻¹ s⁻¹
B3: AB1170241 Fab (Fab, V domains shown)
VH: QVQLVQSGSELKKPGASVKVSCKASGYTFTDYNMDWIRQSPGKGLEWIGDINPNQGGTFYNQKFKDRATLTVDKSTSTAYMELRSLRSDDTAVYYCAREEKLYFGLMDYWGQGTTVTVSS
VL: DIQMTQSPSSLSASVGDRVTITCRASENIYSYLAWYQQKPGKAPKLLVYNAKTLAEGVPSRFSGSGSGIDFTLTISSLQPEDFATYYCQHQYGSPPTFGQGTKLEIK
notes: Fab of the humanized antibody, expressed as in Spooner et al. 2015

Kd [3]: 0.273 nM | koff [3]: 0.00169 s⁻¹ | kon [3]: 6.23e+06 M⁻¹ s⁻¹ | Kd [4]: 0.09 nM | koff [4]: 0.000422 s⁻¹ | kon [4]: 4.74e+06 M⁻¹ s⁻¹ | Kd [5]: 75 nM | koff [5]: 0.281 s⁻¹ | kon [5]: 3.9e+06 M⁻¹ s⁻¹ | Kd [6]: 0.09 nM | koff [6]: 0.000425 s⁻¹ | kon [6]: 4.85e+06 M⁻¹ s⁻¹
B4: AB1170243 Fab (Fab, V domains shown)
VH: B3 VH with Q55N
VL: B3 VL
notes: as for B3

IC50 (mature human GDF-15): 0.864 nM | binding result [1]: binds | binding result [2]: binds
B5: AB1170019 (antibody, V domains shown)
VH: EVQLQQSGPELVKPGASVKIPCKASGYTFTDYNMDWVKQSHGKSLEWIGDINPNNGGTFYNQKFKDKATLTVDKSSSTAYMELRSLTSEDTAVYYCAREEKLYFGLMDYWGQGTSVTVSS
VL: DIQMTQSPASLSASVGETVTITCRASENIYSYLAWYQQKQGKSPQLLVYNAKTLAEGVPSRFSGSGSGIQFSLKINILQPEDFGNYYCQHQYGSPPTFGGGTKLEIK

IC50 (mature human GDF-15): 1.37 nM | binding result [1]: binds | binding result (mouse GDF-15): binds
B6: AB1170074 (antibody, V domains shown)
VH: EVQLQQSGRELVKPGASVKMSCKASGYTFTNYVMHWVKQKPGQGLEWIGYINPHNDGTEYSEKFKGKATLTSDKSSSTAYMELSSLTSEDSAVYYCARWYYDGGYFAYWGQGTLVTVSA
VL: DIVMTQSPATLSVTPGDRVSLSCRASQSISDYLHWYQQKSHESPRLLIKYASQSISGIPSRFSGSGSGSDFTLSINSVEPEDVGVYYCQNGHSFPLTFGAGTKLELK

Kd [3]: 2.88 nM | koff [3]: 0.0245 s⁻¹ | kon [3]: 8.5e+06 M⁻¹ s⁻¹ | Kd [4]: 3.22 nM | koff [4]: 0.0247 s⁻¹ | kon [4]: 7.68e+06 M⁻¹ s⁻¹ | Kd [5]: 908 nM | koff [5]: 0.826 s⁻¹ | kon [5]: 903000 M⁻¹ s⁻¹ | Kd [6]: 3.13 nM | koff [6]: 0.0233 s⁻¹ | kon [6]: 7.47e+06 M⁻¹ s⁻¹
B7: AB1170242 Fab (Fab, V domains shown)
VH: QVQLQESGPGLLKPSQTLSLTCTVSGFSLSTYGMGVGWIRQPAGKGLEWLANIWWNDDKYYNSALKSRLTISKDTSKNQVSLKLSSVTAADTAVYYCAQEVYGWFAYWGQGTLVTVSS
VL: DIQMTQSPSTLSASVGDRVTITCKASQNVGTNVAWYQQKPGQPPKALIYSASYRYSGVPDRFSGSGSGTDFTLTISSLQAEDVAVYYCQQYNSYPLTFGQGTKLEIK
notes: as for B3

Kd [3]: 3.11 nM | koff [3]: 0.0129 s⁻¹ | kon [3]: 4.15e+06 M⁻¹ s⁻¹ | Kd [4]: 3.13 nM | koff [4]: 0.0114 s⁻¹ | kon [4]: 3.63e+06 M⁻¹ s⁻¹ | Kd [5]: 1140 nM | koff [5]: 0.928 s⁻¹ | kon [5]: 804000 M⁻¹ s⁻¹ | Kd [6]: 3.04 nM | koff [6]: 0.0113 s⁻¹ | kon [6]: 3.72e+06 M⁻¹ s⁻¹
B8: AB1170249 Fab (Fab, V domains shown)
VH: B7 VH with A43L, E100M, V101A, G103S
VL: B7 VL with T10F, V29M, G30D, L96F
notes: as for B3

Kd [3]: 5.47 nM | koff [3]: 0.0145 s⁻¹ | kon [3]: 2.64e+06 M⁻¹ s⁻¹ | Kd [4]: 2.35 nM | koff [4]: 0.00558 s⁻¹ | kon [4]: 2.39e+06 M⁻¹ s⁻¹ | Kd [5]: 916 nM | koff [5]: 0.54 s⁻¹ | kon [5]: 591000 M⁻¹ s⁻¹ | Kd [6]: 2.39 nM | koff [6]: 0.00595 s⁻¹ | kon [6]: 2.49e+06 M⁻¹ s⁻¹
B9: AB1170244 Fab (Fab, V domains shown)
VH: EVQLVESGGGLVKPGGSLRLSCAASGFTFSSYAMSWVRQAPGKGLEWVAYISSGGDNIYYADTVKGRFTISRDNSKNTLYLQMNSLKTEDTAVYYCTRALVENAYFDYWGQGTTVTVSS
VL: DSVLTQSPDSLAVSLGERATINCRASKSVSTSTYSYMHWYQQKPGQPPKLLIKYASYLESGVPDRFSGSGSGTDFTLKISRVEAEDVGVYYCQHSREFPWTFGGGTKVEIK
notes: as for B3

Kd [3]: 20.9 nM | koff [3]: 0.0712 s⁻¹ | kon [3]: 3.42e+06 M⁻¹ s⁻¹ | Kd [4]: 10.2 nM | koff [4]: 0.0315 s⁻¹ | kon [4]: 3.1e+06 M⁻¹ s⁻¹ | Kd [5]: 2400 nM | koff [5]: 1.5 s⁻¹ | kon [5]: 643000 M⁻¹ s⁻¹ | Kd [6]: 10.5 nM | koff [6]: 0.0321 s⁻¹ | kon [6]: 3.07e+06 M⁻¹ s⁻¹
B10: AB1170245 Fab (Fab, V domains shown)
VH: B9 VH with N57Y, E102D
VL: DIVLTQSPDSLAVSLGERATINCRASKSVSTSSYSYMHWYQQKPGQPPKLLIKYASYLEFGVPSRFSGSGSGTDFTLTISSLQPEDVATYYCQHSREFPWTFGGGTKVEIK
notes: as for B3

From US20220281965A1 (AstraZeneca / MedImmune, published 2022)
